Measured values taken from PMC2164959.

Target: AU1-tagged codon-optimised HPV16 E5 mutant M1 (human papillomavirus type 16) (UniProt P06927)
Experiment: co-IP; HEK-293T transfected, lysed 20-24 h after transfection in CHAPS buffer (0.2 M NaCl, 50 mM HEPES pH 7.5, 2% CHAPS); immunoprecipitation by the tag of E5 (anti-AU1, anti-HA or anti-GFP), protein G-sepharose, blot with anti-calnexin

B1: calnexin (natural protein)
chain: HDGHDDDVIDIEDDLDDVIEEVEDSKPDTTAPPSSPKVTYKAPVPTGEVYFADSFDRGTLSGWILSKAKKDDTDDEIAKYDGKWEVEEMKESKLPGDKGLVLMSRAKHHAISAKLNKPFLFDTKPLIVQYEVNFQNGIECGGAYVKLLSKTPELNLDQFHDKTPYTIMFGPDKCGEDYKLHFIFRHKNPKTGIYEEKHAKRPDADLKTYFTDKKTHLYTLILNPDNSFEILVDQSVVNSGNLLNDMTPPVNPSREIEDPEDRKPEDWDERPKIPDPEAVKPDDWDEDAPAKIPDEEATKPEGWLDDEPEYVPDPDAEKPEDWDEDMDGEWEAPQIANPRCESAPGCGVWQRPVIDNPNYKGKWKPPMIDNPSYQGIWKPRKIPNPDFFEDLEPFRMTPFSAIGLELWSMTSDIFFDNFIICADRRIVDDWANDGWGLKKAADGAAEPGVVGQMIEAAEERPWLWVVYILTVALPVFLVILFCCSGKKQTSGMEYKKTDAPQPDVKEEEEEKEEEKDKGDEEEEGEEKLEEKQKSDAEEDGGTVSQEEEDRKPKAEEDEILNRSPRNRKPRRE
B1 was tested, and the percent of calnexin co-precipitated, relative to wild type was 50%.
